Data as given in US20120172293A1 (Takeda / Millennium, published 2012).
Non-standard residues stand in square brackets, D forms with d. *: point of attachment. X10 = Tetrahydro‑2H‑pyran‑4‑yl‑carbamoyl, O=C(NC1CCOCC1)*; Phe(2-Me) = Cc1ccccc1C[C@H](N)C(=O)O; tBuAla = CC(C)(C)C[C@H](N)C(=O)O; Cha = N[C@@H](CC1CCCCC1)C(=O)O; Gly(cPr) = N[C@H](C(=O)O)C1CC1; Isobutyryl = CC(C)C(=O)*; Abu = CC[C@H](N)C(=O)O; Aib = CC(C)(N)C(=O)O; Bz = O=C(c1ccccc1)*

T1: human Y2 receptor (human, UniProt P49146 1-381)
T1 construct: whole, on cells; used as membrane fraction of CHO/dhfr- cells stably expressing hY2R; also called hY2R; human NPY2R
T1 sequence (looked up): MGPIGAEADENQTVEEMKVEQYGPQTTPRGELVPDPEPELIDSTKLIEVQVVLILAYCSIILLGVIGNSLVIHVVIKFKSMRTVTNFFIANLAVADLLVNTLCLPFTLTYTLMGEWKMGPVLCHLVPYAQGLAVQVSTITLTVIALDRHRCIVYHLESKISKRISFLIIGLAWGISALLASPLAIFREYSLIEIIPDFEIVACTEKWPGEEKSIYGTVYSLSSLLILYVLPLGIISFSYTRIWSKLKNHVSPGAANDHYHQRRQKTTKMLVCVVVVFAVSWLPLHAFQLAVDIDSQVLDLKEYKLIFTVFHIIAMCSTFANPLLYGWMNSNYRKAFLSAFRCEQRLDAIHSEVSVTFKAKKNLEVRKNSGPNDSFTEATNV

B1: Benzoyl-[Ser26, Cha27,28,36, Aib31]-PYY(25-36) (peptide)
peptide: Bz-RS[Cha][Cha]NL[Aib]TRQR[Cha]-NH2
SMILES: CC(C)C[C@H](NC(=O)[C@H](CC(N)=O)NC(=O)[C@H](CC1CCCCC1)NC(=O)[C@H](CC1CCCCC1)NC(=O)[C@H](CO)NC(=O)[C@H](CCCNC(=N)N)NC(=O)c1ccccc1)C(=O)NC(C)(C)C(=O)N[C@H](C(=O)N[C@@H](CCCNC(=N)N)C(=O)N[C@@H](CCC(N)=O)C(=O)N[C@@H](CCCNC(=N)N)C(=O)N[C@@H](CC1CCCCC1)C(N)=O)[C@@H](C)O
B2: Isobutanoyl-[Abu26, Gly27, Cha28,36, Aib31]-PYY(25-36) (peptide)
peptide: Isobutyryl-R[Abu]G[Cha]NL[Aib]TRQR[Cha]-NH2
SMILES: CC[C@H](NC(=O)[C@H](CCCNC(=N)N)NC(=O)C(C)C)C(=O)NCC(=O)N[C@@H](CC1CCCCC1)C(=O)N[C@@H](CC(N)=O)C(=O)N[C@@H](CC(C)C)C(=O)NC(C)(C)C(=O)N[C@H](C(=O)N[C@@H](CCCNC(=N)N)C(=O)N[C@@H](CCC(N)=O)C(=O)N[C@@H](CCCNC(=N)N)C(=O)N[C@@H](CC1CCCCC1)C(N)=O)[C@@H](C)O
B3: Isobutanoyl-[Abu26,27, Cha28,36, Aib31]-PYY(25-36) (peptide)
peptide: Isobutyryl-R[Abu][Abu][Cha]NL[Aib]TRQR[Cha]-NH2
SMILES: CC[C@H](NC(=O)[C@H](CCCNC(=N)N)NC(=O)C(C)C)C(=O)N[C@@H](CC)C(=O)N[C@@H](CC1CCCCC1)C(=O)N[C@@H](CC(N)=O)C(=O)N[C@@H](CC(C)C)C(=O)NC(C)(C)C(=O)N[C@H](C(=O)N[C@@H](CCCNC(=N)N)C(=O)N[C@@H](CCC(N)=O)C(=O)N[C@@H](CCCNC(=N)N)C(=O)N[C@@H](CC1CCCCC1)C(N)=O)[C@@H](C)O
B4: Isobutanoyl-[Abu26, Cha27,36, Gly(cPr)28, Aib31]-PYY(25-36) (peptide)
peptide: Isobutyryl-R[Abu][Cha][Gly(cPr)]NL[Aib]TRQR[Cha]-NH2
SMILES: CC[C@H](NC(=O)[C@H](CCCNC(=N)N)NC(=O)C(C)C)C(=O)N[C@@H](CC1CCCCC1)C(=O)N[C@H](C(=O)N[C@@H](CC(N)=O)C(=O)N[C@@H](CC(C)C)C(=O)NC(C)(C)C(=O)N[C@H](C(=O)N[C@@H](CCCNC(=N)N)C(=O)N[C@@H](CCC(N)=O)C(=O)N[C@@H](CCCNC(=N)N)C(=O)N[C@@H](CC1CCCCC1)C(N)=O)[C@@H](C)O)C1CC1
B5: Isobutanoyl-[Abu26, Cha27,28,36, His30, Aib31]-PYY(25-36) (peptide)
peptide: Isobutyryl-R[Abu][Cha][Cha]NH[Aib]TRQR[Cha]-NH2
SMILES: CC[C@H](NC(=O)[C@H](CCCNC(=N)N)NC(=O)C(C)C)C(=O)N[C@@H](CC1CCCCC1)C(=O)N[C@@H](CC1CCCCC1)C(=O)N[C@@H](CC(N)=O)C(=O)N[C@@H](Cc1c[nH]cn1)C(=O)NC(C)(C)C(=O)N[C@H](C(=O)N[C@@H](CCCNC(=N)N)C(=O)N[C@@H](CCC(N)=O)C(=O)N[C@@H](CCCNC(=N)N)C(=O)N[C@@H](CC1CCCCC1)C(N)=O)[C@@H](C)O
B6: Isobutanoyl-[Abu26, Cha27,28,36, Abu30, Aib31]-PYY(25-36) (peptide)
peptide: Isobutyryl-R[Abu][Cha][Cha]N[Abu][Aib]TRQR[Cha]-NH2
SMILES: CC[C@H](NC(=O)[C@H](CCCNC(=N)N)NC(=O)C(C)C)C(=O)N[C@@H](CC1CCCCC1)C(=O)N[C@@H](CC1CCCCC1)C(=O)N[C@@H](CC(N)=O)C(=O)N[C@@H](CC)C(=O)NC(C)(C)C(=O)N[C@H](C(=O)N[C@@H](CCCNC(=N)N)C(=O)N[C@@H](CCC(N)=O)C(=O)N[C@@H](CCCNC(=N)N)C(=O)N[C@@H](CC1CCCCC1)C(N)=O)[C@@H](C)O
B7: Tetrahydro-2H-pyran-4-yl-carbamoyl-[D-Pro24, Cha27,36, Leu(Me)28, Lys30, Aib31]-PYY(23-36) (peptide)
peptide: X10-S[dP]RH[Cha][tBuAla]NK[Aib]TRQR[Cha]-NH2
SMILES: C[C@@H](O)[C@H](NC(=O)C(C)(C)NC(=O)[C@H](CCCCN)NC(=O)[C@H](CC(N)=O)NC(=O)[C@H](CC(C)(C)C)NC(=O)[C@H](CC1CCCCC1)NC(=O)[C@H](Cc1c[nH]cn1)NC(=O)[C@H](CCCNC(=N)N)NC(=O)[C@H]1CCCN1C(=O)[C@H](CO)NC(=O)NC1CCOCC1)C(=O)N[C@@H](CCCNC(=N)N)C(=O)N[C@@H](CCC(N)=O)C(=O)N[C@@H](CCCNC(=N)N)C(=O)N[C@@H](CC1CCCCC1)C(N)=O
notes: also called compound No. 229
B8: Ac-[D-Pro24, Phe26, Cha27,36, Aib28,31, Lys30]-PYY(23-36) (peptide)
peptide: Ac-S[dP]RF[Cha][Aib]NK[Aib]TRQR[Cha]-NH2
SMILES: CC(=O)N[C@@H](CO)C(=O)N1CCC[C@@H]1C(=O)N[C@@H](CCCNC(=N)N)C(=O)N[C@@H](Cc1ccccc1)C(=O)N[C@@H](CC1CCCCC1)C(=O)NC(C)(C)C(=O)N[C@@H](CC(N)=O)C(=O)N[C@@H](CCCCN)C(=O)NC(C)(C)C(=O)N[C@H](C(=O)N[C@@H](CCCNC(=N)N)C(=O)N[C@@H](CCC(N)=O)C(=O)N[C@@H](CCCNC(=N)N)C(=O)N[C@@H](CC1CCCCC1)C(N)=O)[C@@H](C)O
notes: also called compound No. 345
B9: Ac-[D-Pro24, Trp26, Cha27,36, Aib28,31, Lys30]-PYY(23-36) (peptide)
peptide: Ac-S[dP]RW[Cha][Aib]NK[Aib]TRQR[Cha]-NH2
SMILES: CC(=O)N[C@@H](CO)C(=O)N1CCC[C@@H]1C(=O)N[C@@H](CCCNC(=N)N)C(=O)N[C@@H](Cc1c[nH]c2ccccc12)C(=O)N[C@@H](CC1CCCCC1)C(=O)NC(C)(C)C(=O)N[C@@H](CC(N)=O)C(=O)N[C@@H](CCCCN)C(=O)NC(C)(C)C(=O)N[C@H](C(=O)N[C@@H](CCCNC(=N)N)C(=O)N[C@@H](CCC(N)=O)C(=O)N[C@@H](CCCNC(=N)N)C(=O)N[C@@H](CC1CCCCC1)C(N)=O)[C@@H](C)O
notes: also called compound No. 347
B10: Ac-[D-Pro24, Cha27,28, Aib31, DL-Phe(2,6-Me2)36]-PYY(23-36) (peptide)
peptide: Ac-S[dP]RH[Cha][Cha]NL[Aib]TRQRX-NH2
modifications: not fully specified (residue 14); printed as Ac-Ser-D-Pro-Arg-His-Cha-Cha-Asn-Leu-Aib-Thr-Arg-Gln-Arg-DL-Phe(2,6-Me2)-NH2; also: residue 36 is DL racemic
notes: residue 36 is a DL racemate; also called compound No. 201
B11: Ac-[D-Pro24, Tyr26, Cha27,36, Aib28,31, Lys30]-PYY(23-36) (peptide)
peptide: Ac-S[dP]RY[Cha][Aib]NK[Aib]TRQR[Cha]-NH2
SMILES: CC(=O)N[C@@H](CO)C(=O)N1CCC[C@@H]1C(=O)N[C@@H](CCCNC(=N)N)C(=O)N[C@@H](Cc1ccc(O)cc1)C(=O)N[C@@H](CC1CCCCC1)C(=O)NC(C)(C)C(=O)N[C@@H](CC(N)=O)C(=O)N[C@@H](CCCCN)C(=O)NC(C)(C)C(=O)N[C@H](C(=O)N[C@@H](CCCNC(=N)N)C(=O)N[C@@H](CCC(N)=O)C(=O)N[C@@H](CCCNC(=N)N)C(=O)N[C@@H](CC1CCCCC1)C(N)=O)[C@@H](C)O
notes: also called compound No. 346
B12: Ac-[Glu23, D-Pro24, Cha27,28, Lys30, Aib31, Phe(2Me)36]-PYY(23-36) (peptide)
peptide: Ac-E[dP]RH[Cha][Cha]NK[Aib]TRQR[Phe(2-Me)]-NH2
SMILES: CC(=O)N[C@@H](CCC(=O)O)C(=O)N1CCC[C@@H]1C(=O)N[C@@H](CCCNC(=N)N)C(=O)N[C@@H](Cc1c[nH]cn1)C(=O)N[C@@H](CC1CCCCC1)C(=O)N[C@@H](CC1CCCCC1)C(=O)N[C@@H](CC(N)=O)C(=O)N[C@@H](CCCCN)C(=O)NC(C)(C)C(=O)N[C@H](C(=O)N[C@@H](CCCNC(=N)N)C(=O)N[C@@H](CCC(N)=O)C(=O)N[C@@H](CCCNC(=N)N)C(=O)N[C@@H](Cc1ccccc1C)C(N)=O)[C@@H](C)O
notes: also called compound No. 256
B13: Ac-[D-Pro24, Gln26, Cha27,36, Aib28,31, Lys30]-PYY(23-36) (peptide)
peptide: Ac-S[dP]RQ[Cha][Aib]NK[Aib]TRQR[Cha]-NH2
SMILES: CC(=O)N[C@@H](CO)C(=O)N1CCC[C@@H]1C(=O)N[C@@H](CCCNC(=N)N)C(=O)N[C@@H](CCC(N)=O)C(=O)N[C@@H](CC1CCCCC1)C(=O)NC(C)(C)C(=O)N[C@@H](CC(N)=O)C(=O)N[C@@H](CCCCN)C(=O)NC(C)(C)C(=O)N[C@H](C(=O)N[C@@H](CCCNC(=N)N)C(=O)N[C@@H](CCC(N)=O)C(=O)N[C@@H](CCCNC(=N)N)C(=O)N[C@@H](CC1CCCCC1)C(N)=O)[C@@H](C)O
notes: also called compound No. 221

Key:
[1] = target: human Y2 receptor (human) (UniProt P49146); test: cell-based or functional assay
[2] = target: human Y2 receptor (human) (UniProt P49146); test: RBA: [125I]-PYY displacement, hY2R/CHO membranes
human Y2 receptor [3] = target: T1, human Y2 receptor; test: RBA: displacement of [125I]-PYY from hY2R/CHO membranes
Procedure: After incubation at room temperature for 60 minutes, the mixture was filtered through the cell harvester FilterMate (PerkinElmer) using UniFilter-96 GF/C treated with polyethylenimine (PEI) solution (20 mM Tris, 0.3% PEI, pH 7.4), and the filter was washed 3 times with a filtering buffer (50 mM Tris, 5 mM MgCl₂, 150 mM NaCl, 0.03% NaN₃, 0.05% CHAPS, pH 7.4). Thereafter, UniFilter-96 GF/C was dried in a mechanical drier for 1 hour, 15 μl of the liquid scintillator MicroScint O (PerkinElmer) was added to each well, and a measurement was taken using TopCount (PerkinElmer). The data obtained were analyzed using Prism to calculate the IC₅₀ value.

human Y2 receptor [4] = target: T1, human Y2 receptor; test: cell-based or functional assay

Row | GBA EC50 Ratio (vs PYY(3-36)), [35S]GTPγS [1] | IC50 Ratio (vs PYY(3-36)) [2] | IC50 Ratio (human Y2 receptor [3]) | GBA EC50 Ratio ([35S]GTPγS binding) (human Y2 receptor [4]) | Binder
1 | 6 | 13 |  |  | B1
2 | 49 | 70 |  |  | B2
3 | 37 | 31 |  |  | B3
4 | 41 | 52 |  |  | B4
5 | 20 | 22 |  |  | B5
6 | 21 | 20 |  |  | B6
7 |  |  | 0.45 IC50 compound/IC50 PYY(3-36) | 0.5 EC50 compound/EC50 PYY(3-36) | B7
8 |  |  | 1.1 IC50 compound/IC50 PYY(3-36) | 1.4 EC50 compound/EC50 PYY(3-36) | B8
9 |  |  | 0.76 IC50 compound/IC50 PYY(3-36) | 1.3 EC50 compound/EC50 PYY(3-36) | B9
10 |  |  | 1.6 IC50 compound/IC50 PYY(3-36) | 2 EC50 compound/EC50 PYY(3-36) | B10
11 |  |  | 1 IC50 compound/IC50 PYY(3-36) | 1.3 EC50 compound/EC50 PYY(3-36) | B11
12 |  |  | 1.7 IC50 compound/IC50 PYY(3-36) | 1.2 EC50 compound/EC50 PYY(3-36) | B12
13 |  |  | 3.1 IC50 compound/IC50 PYY(3-36) | 1.4 EC50 compound/EC50 PYY(3-36) | B13
